Series [1] can be described thus: Net charge and isoelectric point of peptide. It counts as physicochemical. To be noted: pH 7. The text has this: The peptide may be purified. For example, the peptide may be lyophilized. […] Other peptides are within the scope of the disclosure.
Exemplary peptides having a charge of +5 to +9 include […](d)[…], […](d)[…], and […](d)[…]. In other embodiments, the purified peptide may be substantially neutral. […] Net charge may be selected by peptide design. Design of electrostatic charge in the peptide hydrogel may allow control of charge interaction with cell membrane and proteins.

The conditions of series [2]: cited from earlier work.

Square brackets hold non-standard residues; d marks the D form. Ends that are not written are not given here.

For “VEVSVSVEVPPTEVSVEVEV (VEVSVSVEV[dP]PTEVSVEVEV)”, the net charge entry in series [1] is listed as “net negative charge”.
For `O=C(O)C(F)(F)F` [trifluoroacetic acid], in series [2], the pKa result is “about 0”.

The values are drawn from US20250009931A1 (GEL4MED, INC., priority 2021, published 2025).
